Experimental data from IntAct's records for PubMed 29892012.

B1: Pre-B-cell leukemia transcription factor 4 (Homo sapiens), Q9BYU1 (parent)
chain: MAAPPRPAPSPPAPRRLDTSDVLQQIMAITDQSLDEAQARKHALNCHRMKPALFSVLCEIKEKTVVSIRGIQDEDPPDAQLLRLDNMLLAEGVCRPEKRGRGGAVARAGTATPGGCPNDNSIEHSDYRAKLSQIRQIYHSELEKYEQACREFTTHVTNLLQEQSRMRPVSPKEIERMVGAIHGKFSAIQMQLKQSTCEAVMTLRSRLLDARRKRRNFSKQATEVLNEYFYSHLNNPYPSEEAKEELARKGGLTISQVSNWFGNKRIRYKKNMGKFQEEATIYTGKTAVDTTEVGVPGNHASCLSTPSSGSSGPFPLPSAGDAFLTLRTLASLQPPPGGGCLQSQAQGSWQGATPQPATASPAGDPGSINSSTSN
partner: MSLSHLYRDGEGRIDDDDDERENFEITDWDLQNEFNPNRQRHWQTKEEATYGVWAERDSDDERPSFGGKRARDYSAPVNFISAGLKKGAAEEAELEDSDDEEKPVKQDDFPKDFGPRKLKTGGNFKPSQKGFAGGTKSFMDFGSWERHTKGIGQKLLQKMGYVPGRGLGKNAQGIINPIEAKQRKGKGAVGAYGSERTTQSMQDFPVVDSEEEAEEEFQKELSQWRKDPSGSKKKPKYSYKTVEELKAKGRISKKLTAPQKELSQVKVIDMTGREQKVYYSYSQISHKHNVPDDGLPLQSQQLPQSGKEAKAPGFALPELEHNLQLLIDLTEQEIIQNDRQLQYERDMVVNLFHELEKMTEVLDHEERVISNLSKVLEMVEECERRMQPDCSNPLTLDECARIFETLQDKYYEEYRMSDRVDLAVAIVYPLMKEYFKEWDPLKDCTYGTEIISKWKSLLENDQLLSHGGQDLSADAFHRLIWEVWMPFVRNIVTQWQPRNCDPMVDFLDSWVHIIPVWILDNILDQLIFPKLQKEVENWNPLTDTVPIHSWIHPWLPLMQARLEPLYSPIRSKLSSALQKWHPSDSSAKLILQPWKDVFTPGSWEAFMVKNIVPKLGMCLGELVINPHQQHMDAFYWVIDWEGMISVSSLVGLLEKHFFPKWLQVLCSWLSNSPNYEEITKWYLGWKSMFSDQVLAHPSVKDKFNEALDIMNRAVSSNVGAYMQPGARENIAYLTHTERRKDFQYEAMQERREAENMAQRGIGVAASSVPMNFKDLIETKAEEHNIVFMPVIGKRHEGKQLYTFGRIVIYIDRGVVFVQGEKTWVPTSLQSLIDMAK
B2: Pre-B-cell leukemia transcription factor 4 (Homo sapiens), Q9BYU1 (parent)
chain: B1 chain
partner: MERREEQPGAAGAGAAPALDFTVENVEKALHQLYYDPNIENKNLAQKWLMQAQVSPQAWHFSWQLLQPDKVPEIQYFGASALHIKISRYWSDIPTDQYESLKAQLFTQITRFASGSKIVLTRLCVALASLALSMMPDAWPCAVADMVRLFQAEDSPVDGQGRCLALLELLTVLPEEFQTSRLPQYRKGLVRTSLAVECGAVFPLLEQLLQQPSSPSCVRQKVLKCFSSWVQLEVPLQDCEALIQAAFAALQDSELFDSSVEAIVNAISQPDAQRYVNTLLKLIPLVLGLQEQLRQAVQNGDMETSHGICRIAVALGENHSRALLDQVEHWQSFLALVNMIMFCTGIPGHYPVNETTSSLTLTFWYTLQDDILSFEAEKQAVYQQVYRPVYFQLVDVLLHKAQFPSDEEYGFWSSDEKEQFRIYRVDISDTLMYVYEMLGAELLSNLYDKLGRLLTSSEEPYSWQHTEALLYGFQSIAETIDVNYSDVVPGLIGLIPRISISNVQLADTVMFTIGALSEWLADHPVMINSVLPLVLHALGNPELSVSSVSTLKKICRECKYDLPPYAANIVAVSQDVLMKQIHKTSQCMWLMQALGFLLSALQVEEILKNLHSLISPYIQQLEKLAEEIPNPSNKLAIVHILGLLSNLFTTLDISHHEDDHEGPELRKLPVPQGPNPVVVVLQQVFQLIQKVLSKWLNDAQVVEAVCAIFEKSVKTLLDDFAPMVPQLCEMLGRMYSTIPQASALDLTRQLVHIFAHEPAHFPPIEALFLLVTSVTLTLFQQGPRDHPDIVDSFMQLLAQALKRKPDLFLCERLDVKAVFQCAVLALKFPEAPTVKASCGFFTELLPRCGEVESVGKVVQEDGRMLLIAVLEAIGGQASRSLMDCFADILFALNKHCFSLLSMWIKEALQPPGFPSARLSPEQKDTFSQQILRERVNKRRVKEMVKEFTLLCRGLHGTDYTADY
B3: Cyclic AMP-dependent transcription factor ATF-4 (Homo sapiens), P18848 (parent)
chain: MTEMSFLSSEVLVGDLMSPFDQSGLGAEESLGLLDDYLEVAKHFKPHGFSSDKAKAGSSEWLAVDGLVSPSNNSKEDAFSGTDWMLEKMDLKEFDLDALLGIDDLETMPDDLLTTLDDTCDLFAPLVQETNKQPPQTVNPIGHLPESLTKPDQVAPFTFLQPLPLSPGVLSSTPDHSFSLELGSEVDITEGDRKPDYTAYVAMIPQCIKEEDTPSDNDSGICMSPESYLGSPQHSPSTRGSPNRSLPSPGVLCGSARPKPYDPPGEKMVAAKVKGEKLDKKLKKMEQNKTAATRYRQKKRAEQEALTGECKELEKKNEALKERADSLAKEIQYLKDLIEEVRKARGKKRVP
partner: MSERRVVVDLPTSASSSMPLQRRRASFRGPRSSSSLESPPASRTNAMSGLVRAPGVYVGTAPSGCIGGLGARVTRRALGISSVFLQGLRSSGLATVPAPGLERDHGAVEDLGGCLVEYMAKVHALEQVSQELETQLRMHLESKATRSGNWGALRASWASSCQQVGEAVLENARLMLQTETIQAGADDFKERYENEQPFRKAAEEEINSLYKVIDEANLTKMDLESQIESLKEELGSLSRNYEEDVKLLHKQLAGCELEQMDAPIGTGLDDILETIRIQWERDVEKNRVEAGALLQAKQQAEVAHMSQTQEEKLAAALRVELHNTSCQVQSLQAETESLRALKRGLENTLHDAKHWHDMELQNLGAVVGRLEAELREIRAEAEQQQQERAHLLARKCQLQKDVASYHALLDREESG
B4: Casein kinase II subunit alpha (Homo sapiens), P68400 (parent)
chain: MSGPVPSRARVYTDVNTHRPREYWDYESHVVEWGNQDDYQLVRKLGRGKYSEVFEAINITNNEKVVVKILKPVKKKKIKREIKILENLRGGPNIITLADIVKDPVSRTPALVFEHVNNTDFKQLYQTLTDYDIRFYMYEILKALDYCHSMGIMHRDVKPHNVMIDHEHRKLRLIDWGLAEFYHPGQEYNVRVASRYFKGPELLVDYQMYDYSLDMWSLGCMLASMIFRKEPFFHGHDNYDQLVRIAKVLGTEDLYDYIDKYNIELDPRFNDILGRHSRKRWERFVHSENQHLVSPEALDFLDKLLRYDHQSRLTAREAMEHPYFYTVVKDQARMGSSSMPGGSTPVSSANMMSGISSVPTPSPLGPLAGSPVIAAANPLGMPVPAAAGAQQ
partner: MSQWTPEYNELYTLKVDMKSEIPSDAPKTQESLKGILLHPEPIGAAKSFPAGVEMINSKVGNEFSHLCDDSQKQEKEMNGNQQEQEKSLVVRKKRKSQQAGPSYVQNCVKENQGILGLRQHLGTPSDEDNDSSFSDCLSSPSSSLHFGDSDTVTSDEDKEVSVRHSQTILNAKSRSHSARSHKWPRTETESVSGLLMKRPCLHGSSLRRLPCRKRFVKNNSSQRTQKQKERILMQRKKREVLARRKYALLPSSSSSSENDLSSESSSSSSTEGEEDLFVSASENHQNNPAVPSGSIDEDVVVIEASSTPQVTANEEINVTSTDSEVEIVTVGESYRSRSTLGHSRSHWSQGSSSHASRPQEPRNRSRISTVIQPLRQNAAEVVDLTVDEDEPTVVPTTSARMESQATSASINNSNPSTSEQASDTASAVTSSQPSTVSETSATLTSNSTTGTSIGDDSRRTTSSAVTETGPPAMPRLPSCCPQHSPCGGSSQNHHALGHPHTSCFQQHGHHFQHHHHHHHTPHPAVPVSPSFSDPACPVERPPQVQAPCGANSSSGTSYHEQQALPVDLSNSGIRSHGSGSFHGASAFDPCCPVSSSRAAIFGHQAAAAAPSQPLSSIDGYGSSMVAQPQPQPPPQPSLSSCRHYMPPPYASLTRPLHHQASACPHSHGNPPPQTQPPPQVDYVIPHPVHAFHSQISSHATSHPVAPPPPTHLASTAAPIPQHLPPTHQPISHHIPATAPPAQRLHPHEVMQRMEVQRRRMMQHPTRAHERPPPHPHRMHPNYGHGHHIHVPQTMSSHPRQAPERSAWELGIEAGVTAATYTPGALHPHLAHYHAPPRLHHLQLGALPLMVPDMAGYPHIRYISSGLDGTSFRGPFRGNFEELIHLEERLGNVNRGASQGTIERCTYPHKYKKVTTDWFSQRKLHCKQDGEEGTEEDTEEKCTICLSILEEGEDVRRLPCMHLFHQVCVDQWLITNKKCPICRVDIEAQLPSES

Variants of: B1
Details: with tfp11_human TFIP11, Q9UBB9

Q: For A247T, which “effect of a mutation on the interaction” value is on record?
A: with no effect

Variants of: B2
Details: with ipo13_human IPO13, O94829

Q: For A247T, which “effect of a mutation on the interaction” value is on record?
A: disrupting interaction strength

Variants of: B3
Details: with bfsp2_human BFSP2, Q13515

Q: How did the “effect of a mutation on the interaction” value turn out when L180F was run?
A: with no effect

Variants of: B4
Details: with rn111_human RNF111, Q6ZNA4

Q: How did the “effect of a mutation on the interaction” value turn out when K198R was run?
A: with no effect
